Results as given in PMC11779939, “Identification of novel 7-hydroxycoumarin derivatives as ELOC binders with potential to modulate CRL2 complex formation” (Scientific Reports, 2025).
Non-standard residues stand in square brackets, D forms with d. No end group written: not given here. *: point of attachment. FITC = O=C1OC2(c3ccc(O)cc3Oc3cc(O)ccc32)c2ccc(NC(=S)*)cc21; Hyp = O=C(O)[C@@H]1C[C@@H](O)CN1

Molecular target: VHL-ELOB-ELOC (VBC) complex (UniProt P40337 54-213; Q15370 1-104; Q15369 17-112)
Test: fluorescence polarisation; competitive FP for fragment screening, 384-well plates; 0.5 uM VBC, 20 nM FITC peptide, 10 mM HEPES pH 7.5, 0.0025% Tween 20, 50 mM NaCl, 1 mM EDTA, 1 mM DTT; small-molecule competitors (VH032 as reference)
Conditions: both partners purified

binding result: binds
Binder: {FITC}-LEALA[Hyp]YIPA [FITC-LEALA-HyP-YIPA peptide]
